# Laboratory results published in patent US20240401082A1 (Sanofi, published 2024).
# T1: human complement C1s enzyme (activated C1s) (human, UniProt P09871 16-437; P09871 438-688)
# T1 sequence 1: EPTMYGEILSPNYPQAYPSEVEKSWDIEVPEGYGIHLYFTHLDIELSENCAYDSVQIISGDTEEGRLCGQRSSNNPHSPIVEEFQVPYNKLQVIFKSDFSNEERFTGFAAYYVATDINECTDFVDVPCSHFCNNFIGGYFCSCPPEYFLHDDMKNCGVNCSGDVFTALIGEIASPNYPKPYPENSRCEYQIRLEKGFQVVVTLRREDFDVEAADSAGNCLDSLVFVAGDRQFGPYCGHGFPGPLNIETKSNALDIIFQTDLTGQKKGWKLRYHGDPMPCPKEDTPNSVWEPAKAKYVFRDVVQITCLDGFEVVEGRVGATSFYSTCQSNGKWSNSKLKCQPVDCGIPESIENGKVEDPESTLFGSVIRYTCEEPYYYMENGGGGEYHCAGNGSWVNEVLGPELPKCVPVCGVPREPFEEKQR
# T1 sequence 2: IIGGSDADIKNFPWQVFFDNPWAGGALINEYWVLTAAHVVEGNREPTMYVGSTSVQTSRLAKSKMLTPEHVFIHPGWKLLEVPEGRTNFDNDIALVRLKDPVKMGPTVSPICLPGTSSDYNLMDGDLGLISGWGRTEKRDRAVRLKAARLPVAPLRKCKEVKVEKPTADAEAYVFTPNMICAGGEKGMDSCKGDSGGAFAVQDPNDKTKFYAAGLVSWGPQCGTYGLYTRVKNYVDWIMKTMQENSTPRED
# Legend:
# [1] = biological target: T1, human complement C1s enzyme (activated …); experiment: cell-based or functional assay
# [2] = biological target: T2, human complement factor Bb (human, UniProt P00751 260-764); experiment: cell-based or functional assay
# T2 sequence (P00751 260-764): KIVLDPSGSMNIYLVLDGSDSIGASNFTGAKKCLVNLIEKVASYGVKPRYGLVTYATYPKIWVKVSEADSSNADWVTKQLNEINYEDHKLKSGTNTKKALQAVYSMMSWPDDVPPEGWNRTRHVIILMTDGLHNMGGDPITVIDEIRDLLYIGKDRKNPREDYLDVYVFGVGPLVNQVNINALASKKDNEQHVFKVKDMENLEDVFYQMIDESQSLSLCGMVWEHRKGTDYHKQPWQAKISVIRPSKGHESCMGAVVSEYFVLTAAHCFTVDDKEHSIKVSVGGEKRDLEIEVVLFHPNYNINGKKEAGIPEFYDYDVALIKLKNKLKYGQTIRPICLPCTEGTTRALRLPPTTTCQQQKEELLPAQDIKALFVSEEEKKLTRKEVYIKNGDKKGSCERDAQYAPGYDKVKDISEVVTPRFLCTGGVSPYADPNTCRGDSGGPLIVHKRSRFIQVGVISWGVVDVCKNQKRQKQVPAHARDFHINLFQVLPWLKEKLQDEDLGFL
# [3] = biological target: T1, human complement C1s enzyme (activated …); experiment: BLI (Octet), biotinylated target on streptavidin sensor
# Excerpt: (§1) Bio-layer interferometry (BLI) was used to assess the recombinant proteins' target engagement to and binding affinity for complement C1s enzyme (active C1s or “C1s” herein) and factor Bb (Bb) (Complement Technology, Tyler, TX, USA). C1s and Bb were biotinylated with EZ-Link™ Sulfo-NHS-LC-LC-Biotin (Thermo Fisher, Waltham, MA, USA) according to manufacturer instructions. Biotinylated C1s or Bb was loaded on Octet® Streptavidin (SA) Biosensors (Sartorius, Göttingen, Germany), followed by a concentration range of purified proteins. To assess dual target engagement, biotinylated active C1s or Bb was loaded onto sensors, followed by purified proteins (“first association phase”), followed by the non-captured complement target (Bb or active C1s, non-biotinylated; “second association phase”). The assays were performed at 30° C. using PBS with 0.1% Tween 20 as a diluent (FIG. 3).
# [4] = biological target: T2, human complement factor Bb; experiment: as above
# Excerpt: as §1
Binder,IC50 CP (Wieslab) [1],IC50 AP (Wieslab) [2],Kd [3],koff [3],kon [3],Kd [4],koff [4],kon [4],"IC50 AP (Wieslab); curve not saturated, estimated [2]"
"construct #7: αC1s scFab-(G4S)3-αBb scFab (bispecific antibody, Signal peptide marked by boldface only) DIVLTQSPDSLAVSLGERATISCKASQSVDYDGDSYMNWYQQKPGQPPKILIYDASNLESGIPARFSGSGSGTDFTLTISSLEPEDFAIYYCQQSNEDPWTFGGGTKVEIKRTVAAPSVFIFPPSDEQLKSGTASVVCLLNNFYPREAKVQWKVDNALQSGNSQESVTEQDSKDSTYSLSSTLTLSKADYEKHKVYACEVTHQGLSSPVTKSFNRGECGGGGSGGGGSGGGGSGGGGSGGGGSGGGGSGGGGSQVQLVQSGAEVKKPGASVKLSCTASGFNIKDDYIHWVKQAPGQGLEWIGRIDPADGHTKYAPKFQVKVTITADTSTSTAYLELSSLRSEDTAVYYCARYGYGREVFDYWGQGTTVTVSSASTKGPSVFPLAPCSRSTSESTAALGCLVKDYFPEPVTVSWNSGALTSGVHTFPAVLQSSGLYSLSSVVTVPSSSLGTKTYTCNVDHKPSNTKVDKRVGGGGSGGGGSGGGGSDIQMTQSPSTLSASVGDRVTITCKASQDVGTAVAWYQQKPGKAPKLLIYWASTRHTGVPDRFSGSGSGTDFTLTISSLQAEDFAVYFCHQHSSNPLTFGQGTKLEIKRTVAAPSVFIFPPSDEQLKSGTASVVCLLNNFYPREAKVQWKVDNALQSGNSQESVTEQDSKDSTYSLSSTLTLSKADYEKHKVYACEVTHQGLSSPVTKSFNRGECGGGGSGGGGSGGGGSGGGGSGGGGSGGGGSGGGGSEVQLVESGGGLVKPGGSLRLSCAASGFTFSNYAMSWVRQAPGKRLEWVATISNRGSYTYYPDSVKGRFTISRDNAKNSLYLQMNSLRAEDTALYYCARERPMDYWGQGTLVTVSSASTKGPSVFPLAPCSRSTSESTAALGCLVKDYFPEPVTVSWNSGALTSGVHTFPAVLQSSGLYSLSSVVTVPSSSLGTKTYTCNVDHKPSNTKVDKRV",45.9 nM,570 nM,1.8 nM,0.00047 s⁻¹,260000 M⁻¹ s⁻¹,9.3 nM,0.00054 s⁻¹,60000 M⁻¹ s⁻¹,–
"construct #11: αC1s scFab-(G4S)3-αBb scFab-CM (bispecific antibody, Residues 1-20 were left out as the signal peptide, which is marked by boldface only) DIVLTQSPDSLAVSLGERATISCKASQSVDYDGDSYMNWYQEKPGQPPKILIYDASNLESGIPARFSGSGSGTDFTLTISSLEPEDFAIYYCQQSNEDPWTFGGGTKVEIKRTVAAPSVFIFPPSDEQLKSGTASVVCLLNNFYPREAKVQWKVDNALQSGNSQESVTEQDSKDSTYSLSSTLTLSKADYEKHKVYACEVTHQGLSSPVTKSFNRGECGGGGSGGGGSGGGGSGGGGSGGGGSGGGGSGGGGSQVQLVQSGAEVKKPGASVKLSCTASGFNIKDDYIHWVKKAPGQGLEWIGRIDPADGHTKYAPKFQVKVTITADTSTSTAYLELSSLRSEDTAVYYCARYGYGREVFDYWGQGTTVTVSSASTKGPSVFPLAPCSRSTSESTAALGCLVKDYFPEPVTVSWNSGALTSGVHTFPAVLQSSGLYSLSSVVTVPSSSLGTKTYTCNVDHKPSNTKVDKRVGGGGSGGGGSGGGGSDIQMTQSPSTLSASVGDRVTITCKASQDVGTAVAWYQKKPGKAPKLLIYWASTRHTGVPDRFSGSGSGTDFTLTISSLQAEDFAVYFCHQHSSNPLTFGQGTKLEIKRTVAAPAVFIFPPSDEQLKSGTASVVCLLKNFYPREAKVQWKVDNALQSGNSQESVTEQDSKDSTYSLSSTLTLSKADYEKHKVYACEVTHQGLSSPVTKSFNRGECGGGGSGGGGSGGGGSGGGGSGGGGSGGGGSGGGGSEVQLVESGGGLVKPGGSLRLSCAASGFTFSNYAMSWVREAPGKRLEWVATISNRGSYTYYPDSVKGRFTISRDNAKNSLYLQMNSLRAEDTALYYCARERPMDYWGQGTLVTVSSASTKGPSVFPLAPCSRSTSESTAALGCLVKDYFPEPVTVSWNSGALTSGVHTFPAVLQSSGLYSLSSVVEVPSSSLGTKTYTCNVDHKPSNTKVDKRV",49.7 nM,–,2.7 nM,0.00058 s⁻¹,210000 M⁻¹ s⁻¹,8.8 nM,0.00051 s⁻¹,60000 M⁻¹ s⁻¹,~1000 nM
"construct #15: αC1s scFab-(G4S)3-αBb scFv (bispecific antibody, Residues 1-20 were left out as the signal peptide, which is marked by boldface only) DIVLTQSPDSLAVSLGERATISCKASQSVDYDGDSYMNWYQQKPGQPPKILIYDASNLESGIPARFSGSGSGTDFTLTISSLEPEDFAIYYCQQSNEDPWTFGGGTKVEIKRTVAAPSVFIFPPSDEQLKSGTASVVCLLNNFYPREAKVQWKVDNALQSGNSQESVTEQDSKDSTYSLSSTLTLSKADYEKHKVYACEVTHQGLSSPVTKSFNRGECGGGGSGGGGSGGGGSGGGGSGGGGSGGGGSGGGGSQVQLVQSGAEVKKPGASVKLSCTASGFNIKDDYIHWVKQAPGQGLEWIGRIDPADGHTKYAPKFQVKVTITADTSTSTAYLELSSLRSEDTAVYYCARYGYGREVFDYWGQGTTVTVSSASTKGPSVFPLAPCSRSTSESTAALGCLVKDYFPEPVTVSWNSGALTSGVHTFPAVLQSSGLYSLSSVVTVPSSSLGTKTYTCNVDHKPSNTKVDKRVGGGGSGGGGSGGGGSEVQLVESGGGLVKPGGSLRLSCAASGFTFSNYAMSWVRQAPGKRLEWVATISNRGSYTYYPDSVKGRFTISRDNAKNSLYLQMNSLRAEDTALYYCARERPMDYWGQGTLVTVSSGGGGSGGGGSGGGGSDIQMTQSPSTLSASVGDRVTITCKASQDVGTAVAWYQQKPGKAPKLLIYWASTRHTGVPDRFSGSGSGTDFTLTISSLQAEDFAVYFCHQHSSNPLTFGQGTKLEIK",34.7 nM,405 nM,1.6 nM,0.00057 s⁻¹,370000 M⁻¹ s⁻¹,3.9 nM,0.00045 s⁻¹,120000 M⁻¹ s⁻¹,–
"construct #16: αC1s scFab-(G4S)3-αBb scFv-CM (bispecific antibody, Residues 1-20 were left out as the signal peptide, which is marked by boldface only) DIVLTQSPDSLAVSLGERATISCKASQSVDYDGDSYMNWYQEKPGQPPKILIYDASNLESGIPARFSGSGSGTDFTLTISSLEPEDFAIYYCQQSNEDPWTFGGGTKVEIKRTVAAPSVFIFPPSDEQLKSGTASVVCLLNNFYPREAKVQWKVDNALQSGNSQESVTEQDSKDSTYSLSSTLTLSKADYEKHKVYACEVTHQGLSSPVTKSFNRGECGGGGSGGGGSGGGGSGGGGSGGGGSGGGGSGGGGSQVQLVQSGAEVKKPGASVKLSCTASGFNIKDDYIHWVKKAPGQGLEWIGRIDPADGHTKYAPKFQVKVTITADTSTSTAYLELSSLRSEDTAVYYCARYGYGREVFDYWGQGTTVTVSSASTKGPSVFPLAPCSRSTSESTAALGCLVKDYFPEPVTVSWNSGALTSGVHTFPAVLQSSGLYSLSSVVTVPSSSLGTKTYTCNVDHKPSNTKVDKRVGGGGSGGGGSGGGGSEVQLVESGGGLVKPGGSLRLSCAASGFTFSNYAMSWVREAPGKRLEWVATISNRGSYTYYPDSVKGRFTISRDNAKNSLYLQMNSLRAEDTALYYCARERPMDYWGQGTLVTVSSGGGGSGGGGSGGGGSDIQMTQSPSTLSASVGDRVTITCKASQDVGTAVAWYQKKPGKAPKLLIYWASTRHTGVPDRFSGSGSGTDFTLTISSLQAEDFAVYFCHQHSSNPLTFGQGTKLEIK",35.4 nM,586 nM,1.4 nM,0.00051 s⁻¹,360000 M⁻¹ s⁻¹,2.5 nM,0.00023 s⁻¹,90000 M⁻¹ s⁻¹,–
